# Patent publication US12324826B2, “Compositions and methods to mitigate or prevent an immune response to an immunogenic therapeutic molecule in non-human primates” (Jomoco, Corp, priority 2015, dated 2025)
# Tests used:
# [1] = tested on: ADA against the potentially immunogenic therapeutic agent; assay: NHP preclinical pharmacokinetic study: ADA development with immunosuppressant plus immunogenic therapeutic agent; type: in vivo
# Description: Administration of a basiliximab loading dose on Day 0 of the NHP preclinical pharmacokinetic study is followed on Day 1 by administration of a basiliximab maintenance dose and the potentially immunogenic therapeutic agent. Basiliximab is dosed approximately every 10 days to maintain a serum concentration at which CD25 is almost completely bound by basiliximab (about 200 ug/mL). The therapeutic agent is dosed at the proscribed interval and dose.
# Administration of a nanocarrier encapsulated rapamycin (NER) loading dose on Day −2, −1, or 0 of the NHP preclinical pharmacokinetic study is followed on Day 0 by administration the potentially immunogenic therapeutic agent. NER and the therapeutic agent are then co-administered at the proscribed dose and intervals of every 1-4 weeks for as many as 12 weeks, following which the immunogenic therapeutic agent may be administered without NER.
# Basiliximab is dosed approximately every 10 days to maintain a serum concentration at which CD25 is almost completely bound by basiliximab (about 200 ug/mL). Rapamycin is dosed daily or every other day during the course of basiliximab administration to maintain a rapamycin trough level within the range of 4-12 ng/mL. Following this treatment regimen, the immunogenic therapeutic agent may be administered without the immunosuppressant combination.
# [2] = tested on: ADA against the potentially immunogenic therapeutic agent
# Description: Administration of a basiliximab loading dose on Day 0 of the NHP toxicology study is followed on Day 1 by administration of a basiliximab maintenance dose and the potentially immunogenic therapeutic agent. Basiliximab is dosed approximately every 10 days to maintain a serum concentration at which CD25 is almost completely bound by basiliximab (about 200 ug/mL). The therapeutic agent is dosed at the proscribed interval and dose.
# Administration of a nanocarrier encapsulated rapamycin (NER) loading dose on Day −2, −1, or 0 of the NHP toxicology study is followed on Day 0 by administration the potentially immunogenic therapeutic agent. NER and the therapeutic agent are then co-administered at the proscribed dose and intervals of every 1-4 weeks for as many as 12 weeks, following which the immunogenic therapeutic agent may be administered without NER.
# Basiliximab is dosed approximately every 10 days to maintain a serum concentration at which CD25 is almost completely bound by basiliximab (about 200 ug/mL). Rapamycin is dosed daily or every other day during the course of basiliximab administration to maintain a rapamycin trough level within the range of 4-12 ng/mL. Following this treatment regimen, the immunogenic therapeutic agent may be administered without the immunosuppressants.
substance,measurement,setting,value
basiliximab,development of ADA in the immunosuppressant treated group,"[1]; NHP given immunosuppressant and potentially immunogenic therapeutic agent, compared with control group given therapeutic agent alone",no ADA develops or the level of ADA is sufficiently low
same,pharmacokinetic parameters of the therapeutic agent in the immunosuppressant treated group,"[1]; NHP given immunosuppressant and therapeutic agent, altered in the control group due to ADA",unaltered
same,development of ADA,"[2]; NHP toxicology study, immunosuppressant plus therapeutic agent, compared with therapeutic agent alone",prevents the development of ADA
same,immune mediated drug induced liver injury (DILI) in the group given immunosuppressant and therapeutic agent,[2]; in vivo,develop immune mediated drug induced liver injury (DILI)
